One block for each molecule: values may come before it. Where no end group is shown, it is not given here. [ ]: non-standard residue; d: D form. The star is where a group is joined. Biotin = O=C1N[C@H]2[C@H](CS[C@H]2CCCCC(=O)*)N1; pY = N[C@@H](Cc1ccc(OP(=O)(O)O)cc1)C(=O)O
Columns and labels:
[1] = target: phosphorylated NKG2A N-term peptide (N-terminal ITIM) (human); assay: SPR (BIAcore), 25 RU phosphopeptide on streptavidin chip, GST fusion injected
[2] = target: phosphorylated NKG2A C-term peptide (C-terminal ITIM) (human); assay: as above
[3] = target: phosphorylated NKG2A N-term peptide (N-terminal ITIM) (human); assay: SPR (BIAcore); lower end of the range, tied by Table 4 to GST-SHP-2.SH2(N+C) and the N-terminal ITIM (1.38)
[4] = target: phosphorylated NKG2A N-term peptide (N-terminal ITIM) (human); assay: SPR (BIAcore); upper end of the range, tied by Table 4 to GST-SHP-1.SH2(N+C) and the N-terminal ITIM (4.80)
[5] = target: T1, SHIP polyinositol phosphatase from RBL-2H3 cell lysates (rat (cell line RBL-2H3), UniProt P97573 1-1190, limits assumed); assay: cell lysate adsorption to peptide beads, immunoblot (RBL-2H3), FIG. 15A
T1 construct: Detected by immunoblot with anti-SHIP antiserum
T1 sequence (looked up): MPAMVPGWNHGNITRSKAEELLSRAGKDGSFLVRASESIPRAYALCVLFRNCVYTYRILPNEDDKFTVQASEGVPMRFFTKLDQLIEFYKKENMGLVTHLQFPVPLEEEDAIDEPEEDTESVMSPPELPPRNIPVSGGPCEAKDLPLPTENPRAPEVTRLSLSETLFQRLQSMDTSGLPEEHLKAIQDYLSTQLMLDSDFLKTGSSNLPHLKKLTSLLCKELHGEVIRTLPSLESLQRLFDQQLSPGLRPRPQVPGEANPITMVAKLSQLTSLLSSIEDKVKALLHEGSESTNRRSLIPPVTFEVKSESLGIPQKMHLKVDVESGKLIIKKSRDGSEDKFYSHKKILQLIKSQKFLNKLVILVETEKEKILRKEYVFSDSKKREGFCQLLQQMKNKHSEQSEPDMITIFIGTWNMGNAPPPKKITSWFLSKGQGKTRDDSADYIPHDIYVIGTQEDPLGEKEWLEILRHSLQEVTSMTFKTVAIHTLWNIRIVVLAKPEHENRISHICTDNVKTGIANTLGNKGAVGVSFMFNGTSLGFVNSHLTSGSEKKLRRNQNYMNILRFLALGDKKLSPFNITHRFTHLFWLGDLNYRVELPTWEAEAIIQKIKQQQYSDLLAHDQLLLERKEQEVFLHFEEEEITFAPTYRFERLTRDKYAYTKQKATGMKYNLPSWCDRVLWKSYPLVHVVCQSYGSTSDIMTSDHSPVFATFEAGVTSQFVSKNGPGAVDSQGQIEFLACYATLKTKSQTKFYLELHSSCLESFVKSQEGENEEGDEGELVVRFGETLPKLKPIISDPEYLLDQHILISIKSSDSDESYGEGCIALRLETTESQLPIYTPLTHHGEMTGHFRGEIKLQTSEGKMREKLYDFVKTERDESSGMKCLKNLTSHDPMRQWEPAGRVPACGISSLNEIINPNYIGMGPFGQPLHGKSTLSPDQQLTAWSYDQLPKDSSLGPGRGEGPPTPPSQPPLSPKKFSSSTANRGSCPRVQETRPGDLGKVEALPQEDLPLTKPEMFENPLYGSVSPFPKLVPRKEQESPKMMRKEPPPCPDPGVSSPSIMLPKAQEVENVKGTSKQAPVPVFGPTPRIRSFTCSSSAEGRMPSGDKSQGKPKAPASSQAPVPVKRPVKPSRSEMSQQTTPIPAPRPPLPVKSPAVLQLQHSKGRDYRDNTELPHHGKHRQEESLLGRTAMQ
Description: In an attempt to characterize the function of these putative ITIMs, cell lysates were incubated with phosphorylated and nonphosphorylated synthetic peptides corresponding to the N-terminal and the C-terminal I/VxYxxL stretches present in NKG2A intracytoplasmic domain. Cell lysates absorbed to peptides were then assayed by immunoblotting for the presence of the phosphatases known to interact with phosphorylated ITIMs, i.e. the protein tyrosine phosphatases SHP-1 and SHP-2, as well as the polyinositol phosphate phosphatase, SHIP. In parallel, lysates adsorption were performed using control peptides corresponding to ITIMs present in Ig-like ITIM bearing receptors such as human KIRs (p58.2/CD158b, a receptor for HLA-Cw3) and mouse FcγRIIB, as well as in mouse lectin-like ITIM-bearing receptor, such as Ly-49A.
As shown in FIG. 15A (lanes 1 and 2), both N- and C-terminal I/VxYxxL stretches present in NKG2A associate with SHP-1 and SHP-2 in vitro, but no binding to SHIP was detected. Similar patterns of association were obtained using the phosphorylated ITIM peptides of […] and p58.2 KIR (FIG. 15A, lanes 3 to 5). In contrast, FcγRIIB phosphorylated ITIM peptides also associate with SHIP (FIG. 15A, lane 6). No association of phosphatases with nonphosphorylated peptides corresponding to FcγRIIB (FIG. 15A, lane 7) and NKG2A N- and C-terminal I/VxYxxL stretches was detected. When nonphosphorylated and phosphorylated peptides were used to adsorb lysates prepared from ³⁵S methionine/cysteine-labeled cells, only two bands around 64 and 68 kDa selectively associate with both phosphorylated NKG2A N- and C-terminal I/VxYxxL stretches, as compared to nonphosphorylated ones (FIG. 15B). The 64 and 68 kDa proteins which bind to phosphorylated NKG2A peptides correspond to SHP-1 and SHP-2 apparent molecular weight respectively, supporting the immunoblotting results. Therefore, our results define the two NKG2A I/VxYxxL stretches as ITIMs which appear to function similarly to other ITIMs present in inhibitory receptors for MHC class I molecules, i.e. KIRs and Ly-49 molecules. Using recombinant soluble tandem SH2 domains of SHP-1 and SHP-2, we confirmed by surface plasmon resonance that both NKG2A ITIM phosphopeptides directly associate with the SH2 domains of SHP-1 and SHP-2, but not with the SH2 domain of SHIP (FIG. 16).

[6] = target: T2, GST-SHIP.SH2 fusion protein (murine, UniProt Q9ES52 8-104); assay: SPR (BIAcore) with recombinant GST fusion protein
T2 construct: also called SH2 domain of SHIP; not shown: Glutathione S-transferase (GST) fusion partner
T2 sequence (looked up): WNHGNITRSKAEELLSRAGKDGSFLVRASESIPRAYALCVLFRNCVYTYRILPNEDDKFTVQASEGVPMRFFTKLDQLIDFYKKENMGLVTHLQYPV
Description: Fusion proteins and surface plasmon resonance analysis. Surface plasmon resonance (SPR) measurements were performed on a BIAcore™ (Pharmacia). The GST-SHP-1.SH2(NC), GST-SHP-1.SH2(N), GST-SHP-1.SH2(C), GST-SHIP.SH2 fusion proteins generated from the murine phosphatase cDNA, were purified from DH5α lysates. Briefly, overnight culture at 37° C. in LB medium containing 50 μg/ml ampicillin was diluted 1/10 in fresh medium, and incubated until the absorbance at 600 nm reaches 1-2. At that point, IPTG was added (1 mM), and incubation continued for an additional 4 hours at 37° C. After centrifugation, bacteria pellet was resuspended in TENGN buffer (50 mM Tris pH 8, 1 mM EDTA, 10% glycerol, 1% NP40, 1 mM DTT, 1 mM PMSF, 10 μg/ml aprotinin and 10 μg/ml leupeptine). Bacteria were lysed by sonication. After centrifugation, supernatant was incubated with Glutathione-Sepharose 4B beads (Pharmacia) overnight at 4° C. with slow shaking. After 3 washes with 50 mM Tris pH 8, elution of the fusion protein was carried out using 50 mM Tris pH 8 supplemented with 10 mM reduced glutathione. […] Protein purity was assessed by 12.5% SDS-PAGE, and Coomassie blue staining. […] Then, biotinylated peptides were injected, and their binding to streptavidine-coated microchips was assessed using anti-phosphotyrosine 4G10 mAb (UHI).

[7] = target: T3, SHP-1 protein tyrosine phosphatase from RBL-2H3 cell lysates (rat (cell line RBL-2H3), UniProt P81718 1-613); assay: cell lysate adsorption to peptide beads, immunoblot (RBL-2H3)
T3 construct: Detected by immunoblot with anti-SHP-1 mAb

[8] = target: T4, SHP-2 protein tyrosine phosphatase from RBL-2H3 cell lysates (rat (cell line RBL-2H3), UniProt P41499 2-593); assay: as above
T4 construct: Detected by immunoblot with anti-SHP-2 mAb
T4 sequence (looked up): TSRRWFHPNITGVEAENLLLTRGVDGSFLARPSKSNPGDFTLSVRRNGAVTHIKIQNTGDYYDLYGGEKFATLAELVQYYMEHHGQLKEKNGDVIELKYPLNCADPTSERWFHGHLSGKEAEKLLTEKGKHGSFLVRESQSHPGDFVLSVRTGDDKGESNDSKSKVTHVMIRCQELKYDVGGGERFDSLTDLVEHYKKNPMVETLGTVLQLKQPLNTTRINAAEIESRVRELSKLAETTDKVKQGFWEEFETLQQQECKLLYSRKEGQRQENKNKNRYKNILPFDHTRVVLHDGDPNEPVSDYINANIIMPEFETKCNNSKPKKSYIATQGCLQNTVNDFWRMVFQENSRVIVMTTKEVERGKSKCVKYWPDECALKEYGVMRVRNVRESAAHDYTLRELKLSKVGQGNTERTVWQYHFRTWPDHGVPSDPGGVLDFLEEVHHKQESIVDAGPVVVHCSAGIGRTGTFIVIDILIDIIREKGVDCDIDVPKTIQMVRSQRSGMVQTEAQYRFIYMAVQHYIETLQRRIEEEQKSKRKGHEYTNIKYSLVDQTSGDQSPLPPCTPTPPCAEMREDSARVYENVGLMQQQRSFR

[9] = target: T1, SHIP polyinositol phosphatase from …; assay: as above
[10] = target: T5, human NKG2A on NKL, M117-14 and 7-10 cells (human, UniProt P26715 1-233); assay: immunoprecipitation with anti-NKG2A and anti-CD94 mAb
T5 construct: whole, on cells
T5 sequence (P26715 whole entry): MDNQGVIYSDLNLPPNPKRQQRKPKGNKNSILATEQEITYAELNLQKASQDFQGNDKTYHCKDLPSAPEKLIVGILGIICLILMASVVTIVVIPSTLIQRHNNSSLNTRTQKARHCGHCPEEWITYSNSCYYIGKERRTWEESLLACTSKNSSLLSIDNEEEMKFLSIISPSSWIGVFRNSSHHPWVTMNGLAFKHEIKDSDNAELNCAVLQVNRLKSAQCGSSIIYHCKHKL

T3 sequence (P81718 whole entry): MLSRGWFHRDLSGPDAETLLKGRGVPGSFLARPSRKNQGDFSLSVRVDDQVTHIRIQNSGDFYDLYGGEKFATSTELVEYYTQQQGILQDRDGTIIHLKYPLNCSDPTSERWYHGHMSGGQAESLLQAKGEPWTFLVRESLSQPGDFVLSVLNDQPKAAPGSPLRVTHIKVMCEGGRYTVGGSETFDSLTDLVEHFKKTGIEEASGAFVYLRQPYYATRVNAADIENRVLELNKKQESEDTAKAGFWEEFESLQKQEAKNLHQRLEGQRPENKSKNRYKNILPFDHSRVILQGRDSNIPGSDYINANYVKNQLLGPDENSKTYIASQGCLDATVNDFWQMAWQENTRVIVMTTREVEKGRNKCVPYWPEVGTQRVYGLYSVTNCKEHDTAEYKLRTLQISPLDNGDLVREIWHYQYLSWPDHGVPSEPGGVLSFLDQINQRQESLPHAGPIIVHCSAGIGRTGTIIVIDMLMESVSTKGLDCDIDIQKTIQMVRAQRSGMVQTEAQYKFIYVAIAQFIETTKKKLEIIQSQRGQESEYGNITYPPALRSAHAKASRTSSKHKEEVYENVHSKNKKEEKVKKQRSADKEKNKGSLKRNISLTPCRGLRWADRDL

Molecule: Biotin-DEQDPQEAT[pY]AQLN (also called mutated KIR ITIM peptide) [phosphorylated p58.2.1-V301A peptide]
binding result [7]: no binding
binding result [8]: no binding

B1: phosphorylated FcγRIIB-I260A peptide (peptide)
peptide: Biotin-KTEAENTAT[pY]SLLK
notes: also called FcγRIIB 1-I260A; mutated FcγRIIB ITIM
binding result [7]: no binding
binding result [8]: no binding

B3: phosphorylated p58.2.1 peptide (N-terminal KIR ITIM) (peptide)
peptide: Biotin-DEQDPQEVT[pY]AQLNH
notes: also called p58.183.1; phosphorylated N-terminal KIR ITIM peptide
binding result [5]: no binding
binding result [6]: no binding

The next lines start with the values.

Kd [1]: 1.38 nM
koff [1]: 0.00142 s⁻¹
kon [1]: 1.03e+06 M⁻¹ s⁻¹
Kd [2]: 1.57 nM
koff [2]: 0.00132 s⁻¹
kon [2]: 840000 M⁻¹ s⁻¹
Kd [3]: 1 to 5 nM
Molecule: GST-SHP-2.SH2(N+C) fusion protein (from UniProt P35235 1-220)

Kd [4]: 1 to 5 nM
Kd [1]: 4.8 nM
koff [1]: 0.00189 s⁻¹
kon [1]: 390000 M⁻¹ s⁻¹
Kd [2]: 2.83 nM
koff [2]: 0.00117 s⁻¹
kon [2]: 410000 M⁻¹ s⁻¹
Molecule: GST-SHP-1.SH2(N+C) fusion protein (from UniProt P29351 1-217)

binding result [5]: no binding
binding result [6]: no binding
Molecule: Biotin-RPSQRPKTPPTDIIV[pY]TELPNAEP (also called p58.183.2; p58.133.2) [phosphorylated p58.2.2 peptide (C-terminal KIR ITIM)]

binding result [9]: no binding
B2: non-phosphorylated NKG2A N-term peptide (peptide)
peptide: Biotin-MDNQGVIYSDLNL
notes: also called nonphosphorylated NKG2A N-terminal I/VxYxxL stretch

binding result [10]: binds
B4: human CD94 on NKL, M117-14 and 7-10 cells (receptor, UniProt Q13241 1-179, looked up)
chain: MAVFKTTLWRLISGTLGIICLSLMSTLGILLKNSFTKLSIEPAFTPGPNIELQKDSDCCSCQEKWVGYRCNCYFISSEQKTWNESRHLCASQKSSLLQLQNTDELDFMSSSQQFYWIGLSYSEEHTAWLWENGSALSQYLFPSFETFNTKNCIAYNPNGNALDESCEDKNRYICKQQLI
notes: whole, on cells
